Experimental findings from patent publication US11419948B2, “Functionalized microgels with fibrin binding elements” (Georgia Tech Research Corporation, priority 2013, dated 2022) are described below.

The target of the assay is T1, fibrin (Homo sapiens, UniProt P02671+P02675+P02679).
T1 sequence (P02671 36-866 limits assumed): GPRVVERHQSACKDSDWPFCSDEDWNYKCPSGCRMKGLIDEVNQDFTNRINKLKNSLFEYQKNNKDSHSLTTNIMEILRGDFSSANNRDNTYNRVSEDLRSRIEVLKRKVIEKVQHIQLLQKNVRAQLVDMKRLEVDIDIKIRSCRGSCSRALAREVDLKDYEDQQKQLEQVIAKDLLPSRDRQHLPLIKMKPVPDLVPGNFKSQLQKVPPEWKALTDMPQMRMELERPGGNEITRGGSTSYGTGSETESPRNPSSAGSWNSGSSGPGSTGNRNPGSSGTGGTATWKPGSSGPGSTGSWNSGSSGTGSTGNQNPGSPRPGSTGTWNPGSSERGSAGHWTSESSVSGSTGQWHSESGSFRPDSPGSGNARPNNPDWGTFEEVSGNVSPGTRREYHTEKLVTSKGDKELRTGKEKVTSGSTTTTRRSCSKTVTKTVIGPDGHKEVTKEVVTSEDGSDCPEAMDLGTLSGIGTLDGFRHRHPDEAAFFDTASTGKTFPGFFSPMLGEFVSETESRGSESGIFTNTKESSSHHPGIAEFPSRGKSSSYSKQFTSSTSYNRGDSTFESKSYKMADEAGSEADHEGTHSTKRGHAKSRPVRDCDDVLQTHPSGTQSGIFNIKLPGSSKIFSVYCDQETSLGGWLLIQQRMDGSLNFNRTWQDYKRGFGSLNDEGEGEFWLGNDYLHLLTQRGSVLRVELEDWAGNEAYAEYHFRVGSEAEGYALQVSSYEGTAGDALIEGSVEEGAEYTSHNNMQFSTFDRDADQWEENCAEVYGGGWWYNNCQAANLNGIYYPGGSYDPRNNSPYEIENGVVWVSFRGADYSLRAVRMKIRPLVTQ
T1 sequence (P02675 45-491 limits assumed): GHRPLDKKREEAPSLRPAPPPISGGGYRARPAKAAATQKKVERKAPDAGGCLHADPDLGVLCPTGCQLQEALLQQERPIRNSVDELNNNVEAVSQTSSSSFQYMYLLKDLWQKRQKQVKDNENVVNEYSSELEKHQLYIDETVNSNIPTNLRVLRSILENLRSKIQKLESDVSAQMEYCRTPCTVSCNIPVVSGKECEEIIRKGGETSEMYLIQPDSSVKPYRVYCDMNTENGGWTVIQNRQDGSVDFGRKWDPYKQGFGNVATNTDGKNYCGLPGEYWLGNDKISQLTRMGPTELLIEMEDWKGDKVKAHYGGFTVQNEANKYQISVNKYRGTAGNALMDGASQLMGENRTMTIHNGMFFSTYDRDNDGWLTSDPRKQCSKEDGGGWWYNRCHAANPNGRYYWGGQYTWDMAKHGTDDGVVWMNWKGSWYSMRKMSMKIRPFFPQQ
T1 sequence (P02679 27-453): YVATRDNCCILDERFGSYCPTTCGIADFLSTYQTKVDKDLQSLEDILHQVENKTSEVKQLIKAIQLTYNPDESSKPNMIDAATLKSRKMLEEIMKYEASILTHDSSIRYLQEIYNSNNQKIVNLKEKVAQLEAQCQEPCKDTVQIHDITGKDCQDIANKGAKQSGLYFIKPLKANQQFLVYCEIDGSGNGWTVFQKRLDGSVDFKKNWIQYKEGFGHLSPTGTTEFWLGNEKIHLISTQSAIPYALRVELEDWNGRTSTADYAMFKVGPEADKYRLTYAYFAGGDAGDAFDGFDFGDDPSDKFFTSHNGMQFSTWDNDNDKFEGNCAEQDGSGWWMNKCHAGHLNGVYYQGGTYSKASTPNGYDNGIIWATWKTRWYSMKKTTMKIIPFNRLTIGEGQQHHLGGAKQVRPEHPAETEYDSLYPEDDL
In words: Interferometry (Fortébio Blitz) binding of sdFv-microgels to fibrin layer. The conditions noted are these: several concentrations. The protocol:
Ultralow crosslinked (ULC) microgels (microgels) with highly deformable, dendritic architecture were prepared using standard precipitation polymerization techniques previously described, Clemetson, K. J., Thrombosis Research, 129:220-224 (2012). A 95% pNIPAm/5% AAc composition (poly(N-isopropylacrylamide-co-acrylic acid) was utilized for microgel synthesis which results in microscaffolds ˜1-μm diameter in the swollen state. Co-polymerization with acrylic acid was utilized to allow for carboxylic acid chemoligation sites for sdFv attachment, Fries, et al., British Journal of Anesthesia, 105:116-121 (2010); Granville-Chapman, et al., Injury, 42:447-459 (2011). Following synthesis, microgels were purified using ultracentrifugation and conjugated to fibrin specific sdFvs using standard EDC/NHS chemistry. For confocal fluorescence microscopy experiments, sdFvs were also labeled with maleimide-Alexa Fluor-488 following conjugation to the microgels. To determine basic microgels properties, the particles were characterized using dynamic light scattering to determine the hydrodynamic radius and atomic and force microscopy imaging to characterize morphology. Finally, to ensure that microgels coupled to fibrin-specific sdFvs retained fibrin-binding capabilities, binding of sdFv-microgels to fibrin was determined through interferometry analysis utilizing the Fortébio Blitz system. […]

B1: PLPs: ultra-low crosslinked pNIPAm-AAc microgels conjugated to fibrin-specific sdFv H6 (conjugate)
VH: QVQLLESGGGLVQPGGSLRLSCAASGDRFTHNDMGWVRQAPGKGLEWVSTIPTTDGSTYYADSVKGRFTISRDNSKSTLYLQMNSLRAEDTAVYYCATGYMWKAPAYVKYWGQGTLVTVSSAAAEQKLISEEDLNSAAHYTDIG
Take B1: the “binding of sdFv-microgels to the fibrin layer” value is listed as “increased binding to the fibrin layer with increasing concentrations”.
